In one data set the target is thrombin (UniProt P00734;P00734 315-363;364-622). The data set is described as follows: bead-based fluorescence; PDGF-BB and ApoE: PBS pH 7.4, 1 mM MgCl2, 0.025% Tween 20; thrombin: 50 mM Tris pH 7.5, 100 mM NaCl, 1 mM MgCl2, 5 mM KCl, 1 mM CaCl2, 0.025% Tween 20; 1 h, roo.
Data set [1] deals with T1, Bovine serum albumin (Bos taurus (Bovine), UniProt P02769 25-607). As to the kind of experiment: pulldown; 50 mM Tris pH 7.5, 100 mM NaCl, 1 mM MgCl2, 5 mM KCl, 1 mM CaCl2, 0.025% Tween 20, RT. The settings on record: label: 5'-Alexa Fluor 488.
Data set [2] deals with T1, Bovine serum albumin. As to the kind of experiment: pulldown; PBS pH 7.4, 1 mM MgCl2, 0.025% Tween 20, RT. The conditions noted are these: label: 5'-Alexa Fluor 488.
For data set [3], the target named is PDGF-BB (platelet-derived growth factor BB) (UniProt P01127 82-190). The data set is described as follows: bead-based fluorescence; PDGF-BB and ApoE: PBS pH 7.4, 1 mM MgCl2, 0.025% Tween 20; thrombin: 50 mM Tris pH 7.5, 100 mM NaCl, 1 mM MgCl2, 5 mM KCl, 1 mM CaCl2, 0.025% Tween 20; 1 h, room temperature. The settings on record: protein: commercial; chain copies: 2; label: 5'-FAM.
Sequence of PDGF-BB (platelet-derived growth factor BB) (P01127 82-190): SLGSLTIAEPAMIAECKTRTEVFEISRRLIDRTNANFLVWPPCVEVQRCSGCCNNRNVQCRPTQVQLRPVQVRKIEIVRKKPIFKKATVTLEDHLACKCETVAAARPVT

T1 sequence (P02769 25-607): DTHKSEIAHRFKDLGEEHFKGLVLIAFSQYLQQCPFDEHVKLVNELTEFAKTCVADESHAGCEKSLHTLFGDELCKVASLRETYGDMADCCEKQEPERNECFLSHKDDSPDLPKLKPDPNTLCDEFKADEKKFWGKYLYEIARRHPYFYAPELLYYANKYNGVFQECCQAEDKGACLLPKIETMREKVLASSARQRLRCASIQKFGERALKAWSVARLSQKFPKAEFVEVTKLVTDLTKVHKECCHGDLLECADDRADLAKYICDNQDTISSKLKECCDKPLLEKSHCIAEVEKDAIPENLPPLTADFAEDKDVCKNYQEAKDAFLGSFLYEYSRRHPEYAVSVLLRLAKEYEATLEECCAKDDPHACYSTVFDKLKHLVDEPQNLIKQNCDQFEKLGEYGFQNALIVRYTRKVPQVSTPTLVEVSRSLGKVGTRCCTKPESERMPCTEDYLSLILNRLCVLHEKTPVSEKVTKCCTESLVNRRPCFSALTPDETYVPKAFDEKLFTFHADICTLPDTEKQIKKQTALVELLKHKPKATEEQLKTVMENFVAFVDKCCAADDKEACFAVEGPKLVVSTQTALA

In the data set with thrombin, AGTCCGTGGTAGGGCAGGTTGGGGTGACT (ssDNA) [Tasset thrombin aptamer 60-18[29]] had a Kd of 11.9 nM.

B1: Thr-08 (ssDNA)
DNA: AGCAGCACAGAGGTCAGATGCAGCGCTAGGGCTTTTAGCGTAATGGGTAGGGTGGTGCGGTGCAGATATCGGAATTGGTGCCTATGCGTGCTACCGTGAA
On to B1, for which the binding result in the data set with Bovine serum albumin [1] was “no binding”.

B2: PDGF-09 (ssDNA)
DNA: AGCAGCACAGAGGTCAGATGGAATCATGATCCCCCATGACCTGGGGGCGTTACTGGCGAGCATCATGAGAGATCGTGCGACCTATGCGTGCTACCGTGAA
On to B2, for which the binding result in the data set with Bovine serum albumin [2] was “no binding”.

B3: ApoE-06 (Ahmad 2011) (ssDNA)
DNA: AGCAGCACAGAGGTCAGATGACTAGCTACGGGGTGGGTGGGCGGTGTCAGTTTGTTTATTGGTGCTATACATCCTCTATACCTATGCGTGCTACCGTGAA
As for B3, in the data set with Bovine serum albumin [2], the binding result is on record as “no binding”.
Regarding GGTTGGTGTGGTTGG (ssDNA) [Bock thrombin aptamer (consensus 15-mer)], the affinity in the data set with thrombin, expressed as Kd, was 1.2 nM.
Consider CACAGGCTACGGCACGTAGAGCATCACCATGATCCTGTG (ssDNA) [Green PDGF aptamer 36t], for which binding in data set [3] was characterised by a dissociation constant (Kd) of 0.12 nM.

Values taken from PMC3215713, “Probing the Limits of Aptamer Affinity with a Microfluidic SELEX Platform”.
